In general, stoichiometry N refers to a count of units in the complex or per binding partner.

This series concerns the molecule itself. The series can be described thus: native gel or EMSA; TS-actin and associated proteins eluted from StrepTactin resin with 2 mM biotin, run at once on 4-16% NativePAGE, western blot; also samples crosslinked with DSP before lysis. A general note: Mobility shift assays separate free from complexed probe on a gel.

B1: Gl14-3-3-HA (endogenously C-terminally 3XHA tagged Gl14-3-3) (natural protein, Giardia lamblia, UniProt E2RU97 1-248, looked up)
chain: MAEAFTREDYVFMAQLNENAERYDEMVETMRKISGMEGELSDKERNLLSVAYKNVIGPRRAAWRIVSSIEAKEKGRQKPNAKRIEQIRVYRQKIEKELSDICNDILKLLQEQFVPRSTNADAKVFYYKMQGDYYRYLAEYSSGEDKEKIAGSALNAYNSAFEISQQLPPTHPIRLGLALNFSVFYYEILASPDRACELARKAFDAAITDLDKLTEESYKDSTLIMQLLRDNLNLWVTDSAGDDNAEEK
notes: the single 14-3-3 homolog of Giardia (Gl14-3-3), GL50803_6430; source: Giardia trophozoites, endogenously tagged, in lysate; not shown: 3XHA, C-terminal, kept
B1: the “stoichiometry N” value was determined as 2.

Source of the values: doi:10.1101/142505, “14-3-3 Negatively Regulates Actin Filament Formation in the Deep Branching Eukaryote Giardia lamblia” (bioRxiv, 2017).
